Target: T1, flag–Lte1 (budding yeast, UniProt P07866 1-1435)
T1 sequence (looked up): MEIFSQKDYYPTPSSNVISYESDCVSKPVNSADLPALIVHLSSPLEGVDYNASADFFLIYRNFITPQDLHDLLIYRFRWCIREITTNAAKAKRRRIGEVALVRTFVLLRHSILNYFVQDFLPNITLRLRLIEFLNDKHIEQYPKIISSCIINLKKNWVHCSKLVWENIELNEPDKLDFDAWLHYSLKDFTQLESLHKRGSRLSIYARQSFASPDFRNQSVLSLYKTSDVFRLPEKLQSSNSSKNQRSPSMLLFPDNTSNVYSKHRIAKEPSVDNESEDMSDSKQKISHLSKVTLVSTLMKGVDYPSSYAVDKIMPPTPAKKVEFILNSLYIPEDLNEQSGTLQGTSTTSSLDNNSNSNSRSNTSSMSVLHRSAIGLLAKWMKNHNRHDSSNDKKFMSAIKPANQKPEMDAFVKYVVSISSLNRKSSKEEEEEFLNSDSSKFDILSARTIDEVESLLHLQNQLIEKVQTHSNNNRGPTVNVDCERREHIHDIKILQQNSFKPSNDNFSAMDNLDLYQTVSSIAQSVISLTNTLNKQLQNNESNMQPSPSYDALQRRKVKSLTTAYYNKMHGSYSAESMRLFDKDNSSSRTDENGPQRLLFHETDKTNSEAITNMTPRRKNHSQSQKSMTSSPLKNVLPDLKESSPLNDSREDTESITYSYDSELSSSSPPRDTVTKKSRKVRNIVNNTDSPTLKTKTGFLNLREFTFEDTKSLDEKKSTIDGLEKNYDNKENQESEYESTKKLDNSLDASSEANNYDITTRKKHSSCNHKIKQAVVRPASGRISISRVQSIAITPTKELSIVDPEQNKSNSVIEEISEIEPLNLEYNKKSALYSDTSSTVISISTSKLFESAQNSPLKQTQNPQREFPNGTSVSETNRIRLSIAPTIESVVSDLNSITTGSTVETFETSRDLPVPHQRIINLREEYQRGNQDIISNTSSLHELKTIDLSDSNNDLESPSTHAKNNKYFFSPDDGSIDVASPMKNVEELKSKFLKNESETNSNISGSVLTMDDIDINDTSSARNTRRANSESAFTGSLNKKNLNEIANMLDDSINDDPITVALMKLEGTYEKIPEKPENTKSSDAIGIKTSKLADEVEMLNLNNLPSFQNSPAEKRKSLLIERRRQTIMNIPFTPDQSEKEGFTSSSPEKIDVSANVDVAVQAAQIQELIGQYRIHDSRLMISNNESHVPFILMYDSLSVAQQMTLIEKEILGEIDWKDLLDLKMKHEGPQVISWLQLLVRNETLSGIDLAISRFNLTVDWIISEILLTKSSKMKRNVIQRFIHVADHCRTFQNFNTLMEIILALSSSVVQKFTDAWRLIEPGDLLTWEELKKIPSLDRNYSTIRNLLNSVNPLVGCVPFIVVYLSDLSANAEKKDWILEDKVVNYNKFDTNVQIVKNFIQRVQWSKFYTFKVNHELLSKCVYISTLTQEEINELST
Assay: pull-down

binding result: binds
B1: Ras2 protein purified from the insect cells (natural protein, budding yeast, UniProt P01120 1-322, looked up)
chain: MPLNKSNIREYKLVVVGGGGVGKSALTIQLTQSHFVDEYDPTIEDSYRKQVVIDDEVSILDILDTAGQEEYSAMREQYMRNGEGFLLVYSITSKSSLDELMTYYQQILRVKDTDYVPIVVVGNKSDLENEKQVSYQDGLNMAKQMNAPFLETSAKQAINVEEAFYTLARLVRDEGGKYNKTLTENDNSKQTSQDTKGSGANSVPRNSGGHRKMSNAANGKNVNSSTTVVNARNASIESKTGLAGNQATNGKTQTDRTNIDNSTGQAGQANAQSANTVNNRVNNNSKAGQVSNAKQARKQQAAPGGNTSEASKSGSGGCCIIS

From PMC2172978 (The Journal of Cell Biology, 2003)
